Test results reported in patent US9175313B2, “Three-dimensional structure of isoprene synthase and its use thereof for generating variants” (Danisco US Inc., priority 2009, dated 2015).

What was measured:
[1] = Differential scanning calorimetry, thermal midpoint (Tm); assay type: physicochemical
Protocol: Excessive heat capacity curves were measured using an ultrasensitive scanning high-throughput microcalorimeter, VP-Cap DSC (MicroCal, Inc., Northampton, Mass.). The standard procedure for Differential Scanning calorimetry (DSC) measurements and the theory of the technique is previously published (Freire, E. (1995) Differential Scanning calorimetry Methods. Mol. Biol. 41, 191-218). Approximately 500 μL of 0.5 mg/ml IspS (from strain MD09-167) or variant IspS-L494P (from strain DW399) and IspS-T536F (from strain DW363) (in the absence or presence of 5 mM sodium pyrophosphate) were scanned over a 30-100° C. temperature range. The same sample was then re-scanned to check the reversibility of the process. For IspS the thermal unfolding process was irreversible. The buffer used was 50 mM HEPES, 5 mM MgCl2, pH 7.4, with and without 5 mM sodium pyrophosphate. Sodium pyrophosphate was included for its ability to function as a substrate analog. A 200° C./hr scan rate was used to minimize any artifacts that may result from aggregation. The thermal midpoint (Tm) of the DSC curves was used as an indicator of the thermal stability. The thermal melting curves and the melting points for the wild type IspS and variants are shown in FIG. 56 (buffer only) and 57 (with 5 mM sodium pyrophosphate).

[2] = kcat, KM and Ki determination, rate vs [DMAPP], fit to uncompetitive substrate inhibition; assay type: biochemical
Protocol: 10 uL of purified enzyme was incubated with DMAPP at concentrations ranging from 1.25 to 20 mM DMAPP in a buffer containing 50 mM Tris, 50 mM MgCl2 and 50 mM NaCl (pH=8) to a final volume of 100 uL for 15 min. at 30 C in gas tight 2 mL vials. Reactions were terminated with the addition of 100 uL of 250 mM EDTA, pH=8. Samples were analyzed by GC-MS to determine the concentration of isoprene in the headspace of the vials. Data were analyzed using Kaleidagraph and fit to following equation for uncompetitive substrate inhibition: rate/E=kcat*S/(KM+S*(1+S/Ki)). All kinetic assays were performed in triplicate.
Protein concentration was determined by measuring the absorbance of each protein solution at 280 nm on a Helwlett Pachard 8453 UV-Vis spectrophotometer and converting the absorbance to protein concentration using the extinction coefficient as determined on the Expasy website (Gasteiger E., Hoogland C., Gattiker A., Duvaud S., Wilkins M. R., Appel R. D., Bairoch A.; Protein Identification and Analysis Tools on the ExPASy Server; (In) John M. Walker (ed): The Proteomics Protocols Handbook, Humana Press (2005). pp. 571-607). The protein concentrations of isoprene synthase variants assayed for KM and kcat determination were verified by comparative gel electrophoresis of a dilution series of each protein (FIG. 61).

[3] = Specific activity measurement of purified isoprene synthase variants (4 mM DMAPP, 30 C, GC-MS headspace); assay type: biochemical
Procedure, shortened: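 Ni-affinity-purified, buffer-exchanged enzyme incubated with 4 mM DMAPP and 50 mM MgCl2 in 50 mM Tris, 50 mM NaCl, pH 8, for 15 min at 30 C in sealed vials; stopped with EDTA. Headspace isoprene quantified by GC-MS, in triplicate; protein concentration from A280 with calculated extinction coefficient.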

[4] = Isoprene synthase activity vs temperature (DMAPP assay, 25 to 80 C); assay type: biochemical; details: FIG. 58
Protocol: The activity of wild type IspS and variants IspS-L494P and IspS-T536F was measured across a spectrum of temperatures. Individual DMAPP assays were performed at 5° C. intervals from 25° C. to 80° C. by incubating the vials in a pre-heated water bath.
The following reaction mixture was used for the DMAPP assay: 25 μL purified protein, 5 μL MgCl2 (1 M), 5 μL DMAPP (100 mM), and 65 μL 100 mM Tris pH 8, 100 mM NaCl for a total volume of 100 μL. The reaction is performed at the specified temperature for 15 minutes in a gas tight 1.8 mL GC tube. Reactions are terminated by the addition of 100 μL 500 mM EDTA (pH 8). The amount of isoprene produced was measured by GC/MS.
The analysis was performed using an Agilent 6890 GC/MS system interfaced with a CTC Analytics CombiPAL autosampler operating in headspace mode. An Agilent HP-5MS GC/MS column (30 m×0.25 mm; 0.25 μm film thickness) was used for separation of analytes. The sampler was set up to inject 500 μL of headspace gas. The GC/MS method utilized helium as the carrier gas at a flow of 1 ml/min. The injection port was held at 250° C. with a split ratio of 50:1. The oven temperature was held at 37° C. for the […] duration of the analysis. The Agilent 5793N mass selective detector was run in single ion monitoring (SIM) mode on m/z 67. The detector was switched off from 1.4 to 1.7 minutes to allow the elution of permanent gases.

[5] = buffer alone (50 mM HEPES, 5 mM MgCl2, pH 7.4)
[6] = in the presence of 5 mM sodium pyrophosphate

| Molecule | increase in the Tm vs wild type ([1]; buffer alone) [°C] | thermal melting point (Tm) [1, 5] [°C] | increase in the Tm vs wild type [1, 6] [°C] | thermal melting point (Tm) [1, 6] [°C] | KM compared to WT isoprene synthase, in words ([2]; 1.25 to 20 mM DMAPP, 30 C) | rate profile vs [DMAPP] ([2]; 1.25 to 20 mM DMAPP, 30 C) | Km ([2]; 1.25 to 20 mM DMAPP, 30 C, average of three trials ± one standard deviation) [mM] | kcat ([2]; 1.25 to 20 mM DMAPP, 30 C, average of three trials ± one standard deviation, in s^-1 (unit assumed)) | kcat compared to WT isoprene synthase, in words ([2]; 1.25 to 20 mM DMAPP, 30 C, listed as β) | Ki ([2]; uncompetitive substrate inhibition by DMAPP, average of three trials ± one standard deviation, read-out: KiDMAPP) [mM] | S.A. ([3]; 50 mM NaCl, 50 mM Tris pH = 8, 30° C.) [nmol/mg/min] | Variant S.A./WT S.A. ([3]; 50 mM NaCl, 50 mM Tris pH = 8, 30° C., ratio to WT) | specific activity compared to WT isoprene synthase, in words ([3]; 30 C, purified enzyme) | specific activity, times/fold greater than WT ([3]; 30 C, purified enzyme, listed as P) | specific activity, times/fold greater than WT ([3]; 30 C, purified enzyme, listed as β) | temperature activity ratio curve (specific activity at a given temperature / at 35° C.), in words [4] |
| --- | --- | --- | --- | --- | --- | --- | --- | --- | --- | --- | --- | --- | --- | --- | --- | --- |
| L494P: P. alba IspS variant L494P; pDW101, strain DW399, SEQ ID NO: 69 (protein) MEARRSANYEPNSWDYDYLLSSDTDESIEVYKDKAKKLEAEVRREINNEKAEFLTLLELIDNVQRLGLGYRFESDIRGALDRFVSSGGFDAVTKTSLHGTALSFRLLRQHGFEVSQEAFSGFKDQNGNFLENLKEDIKAILSLYEASFLALEGENILDEAKVFAISHLKELSEEKIGKELAEQVNHALELPLHRRTQRLEAVWSIEAYRKKEDANQVLLELAILDYNMIQSVYQRDLRETSRWWRRVGLATKLHFARDRLIESFYWAVGVAFEPQYSDCRNSVAKMFSFVTIIDDIYDVYGTLDELELFTDAVERWDVNAINDLPDYMKLCFLALYNTINEIAYDNLKDKGENILPYLTKAWADLCNAFLQEAKWLYNKSTPTFDDYFGNAWKSSSGPLQLVFAYFAVVQNIKKEEIENLQKYHDTISRPSHIFRLCNDLASASAEIARGETANSVSCYMRTKGISEELATESVMNLIDETWKKMNKEKLGGSPFAKPFVETAINLARQSHCTYHNGDAHTSPDELTRKRVLSVITEPILPFERENLYFQGLEHHHHHH | 2.1 | 60.4 | 2.3 | 57.0 | less than the KM of the WT | uncompetitive substrate inhibition by DMAPP | 3.6 ± 0.5 | 2.1 ± 0.1 | greater than the kcat of the WT | 13 ± 1 | 950 ± 40 | 2.0 | increased specific activity | 2.0 | 2 |  |
| T536F: P. alba IspS variant T536F; pDW87, strain DW363, SEQ ID NO: 95 (protein) MEARRSANYEPNSWDYDYLLSSDTDESIEVYKDKAKKLEAEVRREINNEKAEFLTLLELIDNVQRLGLGYRFESDIRGALDRFVSSGGFDAVTKTSLHGTALSFRLLRQHGFEVSQEAFSGFKDQNGNFLENLKEDIKAILSLYEASFLALEGENILDEAKVFAISHLKELSEEKIGKELAEQVNHALELPLHRRTQRLEAVWSIEAYRKKEDANQVLLELAILDYNMIQSVYQRDLRETSRWWRRVGLATKLHFARDRLIESFYWAVGVAFEPQYSDCRNSVAKMFSFVTIIDDIYDVYGTLDELELFTDAVERWDVNAINDLPDYMKLCFLALYNTINEIAYDNLKDKGENILPYLTKAWADLCNAFLQEAKWLYNKSTPTFDDYFGNAWKSSSGPLQLVFAYFAVVQNIKKEEIENLQKYHDTISRPSHIFRLCNDLASASAEIARGETANSVSCYMRTKGISEELATESVMNLIDETWKKMNKEKLGGSLFAKPFVETAINLARQSHCTYHNGDAHTSPDELTRKRVLSVIFEPILPFERENLYFQGLEHHHHHH | 3.8 | 62.1 | 4.7 | 59.4 |  |  |  |  |  |  |  |  |  |  |  | increased activity and thermostability |
